± gives the uncertainty stated by the source.
Test: self-splicing fitness, log relative to wild type (ln ratio); higher = more splicing; Tetrahymena group I intron in knt gene, E. coli kanamycin selection, DiMSum; sequences stand for … in CUCUCU…GGAGGGAAAAGUUAUCAGGCAUGCACCUGGUAGCUAGUCUUUAAACCAAUAGAUUGCAUCGGUUUAAAAGGCAAGACCGUCAAAUUGCGGGAAAGGGGUCAACAGCCGUUCAGUACCAAGUCUCAGGGGAAACUUUGAGAUGGCCUUGCAAAGGGUAUGGUAAUAAGCUGACGGACAUGGUCCUAACCACGCAGCCAAGUCCUAAGUCAACAGAUCUUCUGUUGAUAUGGAUGCAGUUCACAGACUAAAUGUCGGUCGGGGAAGAUGUAUUCUUCUCAUAAGAUAUAGUCGGACCUCUCCUUAAUGGGAGCUAGCGGAUGAAGUGAUGCAACACUGGAGCCGCUGGGAACUAAUUUGUAUGCGAAAGUAUAUUGAUUAGUUUUGGAGUACUCGUGGUCG
How it was run: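 Pooled colonies went to amplicon sequencing on an Illumina HiSeq 2500 after six replicate transformations. The plates were LB agar with 100 μg/mL carbenicillin, 50 μM IPTG and 0.2% rhamnose, with or without 25 μg/mL kanamycin, incubated overnight at 37°C or 30°C. The E. coli BL21(DE3) library had all eight P1ex-region intron nucleotides randomised, the intron placed in the knt kanamycin-resistance gene on pET-22b(+). DiMSum fitness is the error-weighted combination of replicate fold changes, kanamycin against none, normalised to wild type.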

Sequence	self-splicing fitness (ln) (30 °C)	self-splicing fitness (ln) (37 °C)
GAGCAGCAAUAUUACGUAAG	-2.59 ± 0.17	-1.45 ± 0.18
AUCAAGCAAUAUUACGACGG	-3.8 ± 0.14	-2.67 ± 0.15
ACGCAGCAAUAUUACGGAGA	-2.66 ± 0.3	-2.41 ± 0.2
GUAAAGCAAUAUUACGGGUA	-1.02 ± 0.078	-0.464 ± 0.085
CGGCAGCAAUAUUACGUUCG	–	-1.23 ± 0.16
UCCCAGCAAUAUUACGUCUC	-3.23 ± 0.22	-2.89 ± 0.25
UUUAAGCAAUAUUACGUUGG	-1.45 ± 0.1	-1.67 ± 0.17
CGUUAGCAAUAUUACGCAUC	–	-2.72 ± 0.41
GGUAAGCAAUAUUACGCAGG	-2.05 ± 0.16	-1.29 ± 0.15
GCGAAGCAAUAUUACGGGCC	–	-1.37 ± 0.46
UUAUAGCAAUAUUACGCGAA	-1.97 ± 0.2	-1.53 ± 0.34
GCGUAGCAAUAUUACGGAGA	-2.63 ± 0.21	-1.87 ± 0.23
AGCUAGCAAUAUUACGUUGG	-3.61 ± 0.19	-2.03 ± 0.18
GGUUAGCAAUAUUACGUGGA	-2.72 ± 0.2	-1.08 ± 0.14
UGCCAGCAAUAUUACGAACC	-3.55 ± 0.43	-2.29 ± 0.5
GCACAGCAAUAUUACGAAAC	-0.701 ± 0.088	-0.265 ± 0.12
AUGGAGCAAUAUUACGGUUA	–	-2.16 ± 0.34
CUUUAGCAAUAUUACGGGAU	-3.8 ± 0.22	-2.67 ± 0.19
AACGAGCAAUAUUACGGGGG	-3.29 ± 0.26	-3.01 ± 0.37
UAUUAGCAAUAUUACGAUUG	-1.08 ± 0.089	-0.0341 ± 0.14
UAUCAGCAAUAUUACGGUUG	-0.952 ± 0.068	-0.113 ± 0.1
UGAGAGCAAUAUUACGUGAA	-4.19 ± 0.33	-2.35 ± 0.27
AUGCAGCAAUAUUACGCUCA	-0.858 ± 0.061	-0.215 ± 0.075
GUGUAGCAAUAUUACGAGAU	-2.83 ± 0.26	-1.23 ± 0.22
UUAAAGCAAUAUUACGCAAU	-2.44 ± 0.15	-1.42 ± 0.17
AGGGAGCAAUAUUACGACAC	–	-1.18 ± 0.29

Sequence	self-splicing fitness (ln) (30 °C)	self-splicing fitness (ln) (37 °C)
ACAUAGCAAUAUUACGAUUG	-2.62 ± 0.1	-0.942 ± 0.11
AGUUAGCAAUAUUACGGUUC	-3.52 ± 0.28	-2.11 ± 0.27
ACGGAGCAAUAUUACGUGAA	-2.95 ± 0.15	-2.35 ± 0.19
ACAGAGCAAUAUUACGCUUA	-2.01 ± 0.22	-1.25 ± 0.16
UUGUAGCAAUAUUACGCUGA	-1.09 ± 0.18	-1.05 ± 0.2
UAUAAGCAAUAUUACGAUGA	-0.333 ± 0.1	0.344 ± 0.13
GGCGAGCAAUAUUACGUGGC	-3.3 ± 0.25	-1.73 ± 0.25
CAUCAGCAAUAUUACGUCCA	-1.71 ± 0.12	-2.92 ± 0.22
GACGAGCAAUAUUACGGUGU	-4.63 ± 0.45	-2.64 ± 0.22
AGAGAGCAAUAUUACGGUAC	–	-2.12 ± 0.27
GACGAGCAAUAUUACGUUUC	-2.64 ± 0.24	-3.33 ± 0.33
AAUCAGCAAUAUUACGAUCA	0.364 ± 0.09	0.109 ± 0.11
AUUCAGCAAUAUUACGACGU	-0.0483 ± 0.06	0.146 ± 0.068
UUGGAGCAAUAUUACGACGA	-0.765 ± 0.14	0.309 ± 0.21
GUUGAGCAAUAUUACGUUCU	-1.82 ± 0.14	-1.2 ± 0.13
CUAAAGCAAUAUUACGAAAA	-3.34 ± 0.41	-2.19 ± 0.35
GCUAAGCAAUAUUACGUGUC	-2.75 ± 0.13	-2.22 ± 0.14
AACAAGCAAUAUUACGUCCG	-1.26 ± 0.067	-0.444 ± 0.085
GCGGAGCAAUAUUACGUUGC	-4.4 ± 0.42	-2.78 ± 0.34
UUAAAGCAAUAUUACGACAA	0.44 ± 0.091	0.336 ± 0.11
GACAAGCAAUAUUACGGAAU	-1.92 ± 0.11	-1.35 ± 0.12
ACCUAGCAAUAUUACGUACA	-1.31 ± 0.14	-0.964 ± 0.17
GAUUAGCAAUAUUACGAAAC	-2.38 ± 0.16	-1.61 ± 0.17
GUGCAGCAAUAUUACGGACG	-2.47 ± 0.1	-0.949 ± 0.11
AAGAAGCAAUAUUACGGGCU	-1.35 ± 0.13	-2.09 ± 0.2
UGUAAGCAAUAUUACGGGCA	-0.98 ± 0.09	0.521 ± 0.1

Sequence	self-splicing fitness (ln) (30 °C)	self-splicing fitness (ln) (37 °C)
CCCUAGCAAUAUUACGCUCG	-2.25 ± 0.2	-2.85 ± 0.48
CGCAAGCAAUAUUACGUAAU	-3.89 ± 0.2	-2.14 ± 0.17
GUUAAGCAAUAUUACGAGCA	-1.9 ± 0.12	-0.552 ± 0.11
AGACAGCAAUAUUACGGUGG	-3 ± 0.12	-1.89 ± 0.17
GGGUAGCAAUAUUACGCGAA	-0.995 ± 0.16	-0.21 ± 0.13
GUACAGCAAUAUUACGAUAG	-3.23 ± 0.16	-0.84 ± 0.13
CCACAGCAAUAUUACGCAUU	-3.53 ± 0.17	-3.11 ± 0.16
CUCUAGCAAUAUUACGAAAC	-2.61 ± 0.35	–
CAUGAGCAAUAUUACGCUAU	-3.46 ± 0.3	-1.99 ± 0.21
UGCGAGCAAUAUUACGCUCA	–	0.239 ± 0.26
GUCCAGCAAUAUUACGCCAG	-3.38 ± 0.23	-1.15 ± 0.2
CAUGAGCAAUAUUACGCGAG	-2.19 ± 0.14	-1.47 ± 0.18
CCGUAGCAAUAUUACGGCGU	-2.57 ± 0.23	-1.86 ± 0.25
CGACAGCAAUAUUACGUGAA	-1.93 ± 0.11	-2.02 ± 0.15
UCGUAGCAAUAUUACGCGGG	-3.63 ± 0.37	-0.254 ± 0.15
CUCGAGCAAUAUUACGCAAG	-3.95 ± 0.43	-1.35 ± 0.3
UCCUAGCAAUAUUACGUGCC	-2.26 ± 0.33	-2.02 ± 0.39
AUGGAGCAAUAUUACGCAAA	-2.21 ± 0.36	–
CGCCAGCAAUAUUACGCUUG	-2.95 ± 0.13	-1.88 ± 0.15
CAAUAGCAAUAUUACGCUCA	-0.892 ± 0.11	-1.73 ± 0.14
CAGAAGCAAUAUUACGCAUU	-4.37 ± 0.27	-2.92 ± 0.2
CACGAGCAAUAUUACGUGGA	-3.08 ± 0.17	-2.2 ± 0.17
GAACAGCAAUAUUACGACUA	-0.346 ± 0.085	-0.46 ± 0.097
UGAUAGCAAUAUUACGGGCC	-3.78 ± 0.42	–
ACCUAGCAAUAUUACGCUUG	-3.5 ± 0.16	-2.04 ± 0.16
GCCGAGCAAUAUUACGCUAA	-1.86 ± 0.2	-2.62 ± 0.23

— the supplement of paper PMC7877785
